Publication PMC3366918

Legend:
[1] = target: HIV-1 Rev wildtype, fused at its carboxy terminus to CFP (donor) or YFP (acceptor) (HIV-1 strain HXB3); assay: FRET or BRET
[2] = target: ZipRevSLT40: yeast GCN4 leucine zipper fused to the amino terminus of RevSLT40, with CFP or YFP at the carboxy terminus (yeast | HIV-1 strain HXB3); assay: FRET or BRET

HIV-1 Rev wildtype, fused at its carboxy terminus to CFP (donor) or YFP (acceptor) (natural protein)
percent FRET positive cells [1]: 80.3%

ZipRevSLT40: yeast GCN4 leucine zipper fused to the amino terminus of RevSLT40, with CFP or YFP at the carboxy terminus
percent FRET positive cells [2]: 41.9%
